Results from patent US9145555B2, “Integrated—ligand-responsive microRNAs” (California Institute of Technology, priority 2009, dated 2015).

How the values were obtained:
[1] = tested on: xanthine aptamer; details: cited from earlier work
[2] = tested on: transcript encoding the green fluorescent protein (GFP) in HEK 293 cells stably expressing GFP; experiment: Cell culture assay for miRNA activity (GFP silencing, transient transfection, flow cytometry); type: cell-based, human
Source text: To examine the relationship between bulge size in the basal segments and gene silencing, we developed a general cell culture assay for miRNA activity (FIG. 1D). miRNAs designed to target a transcript encoding the green fluorescent protein (GFP) were inserted into the 3′ untranslated region (UTR) of a constitutively-expressed transcript encoding the fluorescent protein DsRed-Express. Plasmid DNA encoding the DsRed-Express construct was transfected into HEK 293 cells stably expressing GFP. The level of miRNA-mediated gene silencing was determined by flow cytometry analysis, where DsRed-Express levels were used to distinguish between transfected and untransfected cells. Using the cell culture assay, miRNAs with the same bulges as in the in vitro experiments were tested for silencing efficiency. […] Therefore, proper Drosha processing and gene silencing correlate with the size of the bulge in the miRNA basal segments.
293 and Flp-In-293 cells were maintained in DMEM supplemented with 10% FBS at 37° C. in a 5% CO2—humidified incubator. Transient transfections were conducted with Fugene 6 (Roche) according to the manufacturer's instructions one day after seeding. Immediately prior to transfection, the media was supplemented with the appropriate ligand at the specified concentration. Ligand concentrations were selected to maximize the regulatory response without severely compromising cell viability over the course of the transient assays. The media was replaced two days post-transfection. Three days post-transfection, the cells were trypsinized and subjected to flow cytometry analysis on a Cell Lab Quanta SC MPL (Beckman Coulter) and the resulting data was analyzed using the Flowjo software (Tree Star). Cells were initially gated for viability by electronic volume and side scatter. GFP and DsRed fluorescence of viable cells were measured through a 525 nm and […] band pass filter, respectively, after excitation with a 488 nm laser. Moderate to high DsRed levels served as a transfection control to gate between transfected and untransfected cells. Transfected cells could be distinguished from untransfected cells with this method even when four miRNAs were present in the 3′ UTR of the DsRed-Express encoding transcript (data not shown). GFP levels were calculated as the median fluorescence of the transfected population divided by that of the untransfected population (Beisel et al., 2008). This normalization approach corrected for the bias from pleiotropic effects associated with each small molecule. All ratios were normalized such that the value for DsRed-Express lacking a miRNA under the same conditions was set to 100%.

[3] = tested on: immunopurified Drosha complex; experiment: In vitro Drosha cleavage assay; type: biochemical
Procedure: We performed in vitro Drosha cleavage assays that mimic the first step in miRNA biogenesis to examine the relationship between bulge size and Drosha processing. RNAs with varying bulge sizes in the basal segments (FIG. 1B) were transcribed in vitro, incubated with immunopurified Drosha, and resolved by PAGE (FIG. 1C). […] Such abortive processing has been previously observed in vitro and attributed to DGCR8 recognition of the terminal loop instead of the miRNA basal segments (Han et al., 2006).
Internally radiolabeled RNAs were transcribed in vitro from an annealed template containing the T7 promoter (5′-[…]-3′, where G is the first transcribed nucleotide) using the Ampliscribe T7 transcription kit (Epicentre) according to the manufacturer's instructions with [α-32P]-GTP. Following transcription and DNase treatment, the transcription product was purified through a NucAway clean-up column (Ambion) according to the manufacturer's instructions and gel-purified by PAGE.
In vitro assays were conducted as described previously (Lee
and Kim, 2007). Briefly, the Drosha complex was immunopurified from 293T cells transiently transfected with pCK-Drosha-FLAG and pCK-DGCR8-FLAG (9:1 mass ratio). […]

[4] = tested on: transcript encoding DsRed-Express; experiment: DsRed-Express levels, regulation in cis (transient transfection, flow cytometry); type: cell-based, human
Source text: (§1) To assess the capacity for ligand-responsive miRNAs to regulate gene expression in cis, we measured expression levels for the transcripts harboring the ligand-responsive miRNAs targeting GFP and La. DsRed-Express levels were quantified by flow cytometry under similar conditions as the trans-targeted gene silencing experiments. […] Transcript analysis confirmed that the predominant regulatory mechanism of ligand-responsive miRNAs in cis is mRNA destabilization (FIG. 10).
293 and Flp-In-293 cells were maintained in DMEM supplemented with 10% FBS at 37° C. in a 5% CO2—humidified incubator. Transient transfections were conducted with Fugene 6 (Roche) according to the manufacturer's instructions one day after seeding. Immediately prior to transfection, the media was supplemented with the appropriate ligand at the specified concentration. […] Three days post-transfection, the cells were trypsinized and subjected to flow cytometry analysis on a Cell Lab Quanta SC MPL (Beckman Coulter) and the resulting data was analyzed using the Flowjo software (Tree Star). […] GFP and DsRed fluorescence of viable cells were measured through a 525 nm and […] band pass filter, respectively, after excitation with a 488 nm laser. […] GFP levels were calculated as the median fluorescence of the transfected population divided by that of the untransfected population (Beisel et al., 2008). […]

[5] = tested on: targeted GFP transcript; experiment: Self-targeting miRNA circuit, GFP levels in stable 293-Flp-In cells (flow cytometry, time course); type: cell-based, human; details: 1.5 mM theophylline for over a week; compared to th1′
Source text: Ligand-responsive miRNAs can regulate genes in trans through RISC targeting and in cis through Drosha cleavage. A control system based on combining both modes of regulation into ‘self-targeting miRNAs’ may offer tighter regulation while still operating within the 3′ UTR of the transgene encoding transcript. We developed a dual-acting miRNA circuit based on the insertion of ligand-responsive miRNAs or miRNA clusters into the 3′ UTR of a targeted GFP transcript (FIG. 6A), where ligand control of Drosha cleavage is expected to impact direct destabilization of the cleaved transcript and subsequent RISC-mediated inactivation of other target transcripts. The resulting constructs were stably integrated into 293-Flp-In cells to ensure consistent expression for all constructs. […]
Stable transfection of 293-Flp-In cell lines was performed using the Flp-In recombinase system (Invitrogen) according to the manufacturer's instructions to generate isogenic stable cell lines. Integrants were selected using 200 μg/ml hygromycin B (Invitrogen), whereas stable cell lines were maintained in 50 μg/ml hygromycin B. The procedure described above for the fluorescence expression analysis of transiently transfected cell populations was used to analyze the stable cell lines with notable exceptions. […]

[6] = tested on: transcript encoding DsRed-Express; experiment: DsRed-Express levels in stable cell lines with La-targeting miRNAs (flow cytometry); type: cell-based, human; details: four copies; for response of DsRed levels to theophylline: 1.5 mM theophylline; for DsRed-Express down-regulation in cis: stable cell lines
Source text: as §1
(§2) Stable transfection of 293-Flp-In cell lines was performed using the Flp-In recombinase system (Invitrogen) according to the manufacturer's instructions to generate isogenic stable cell lines. Integrants were selected using 200 μg/ml hygromycin B (Invitrogen), whereas stable cell lines were maintained in 50 μg/ml hygromycin B. The procedure described above for the fluorescence expression analysis of transiently transfected cell populations was used to analyze the stable cell lines with notable exceptions. Normalization of flow cytometry data to untransfected cells was not performed as all cells express the integrated construct, and all data was normalized to cells lacking a miRNA and grown in the absence of theophylline. Normalization to cells grown under the same conditions was not performed since theophylline differentially affected the two negative controls: no miRNA and a self-targeting miRNA lacking the theophylline aptamer.

[7] = tested on: endogenous La gene; experiment: La transcript levels by qRT-PCR in stable 293-Flp-In cell lines; type: cell-based, human; details: four copies; for silencing of La transcript: 112 nt spacer, stable cell lines
Source text: Most of the synthetic ligand-responsive RNA-based regulatory systems are encoded in the target transcript, providing regulation in cis (Suess and Weigand, 2008). However, the regulation of endogenous genes through cis regulatory strategies is currently limiting due to the lack of directed recombination technologies. To test whether ligand-responsive miRNAs provide a trans regulatory strategy for the effective regulation of endogenous genes, we incorporated a mature miRNA sequence against the endogenous La gene into wt (La1) and th1 (La2) (FIG. 9). Four copies of each miRNA separated by the longest spacer sequence were cloned into the 3′ UTR of the transcript encoding DsRed-Express, and the resulting constructs were stably integrated into a single site in 293-Flp-In cells.
as §2
Transcript levels were measured by qRT-PCR under either transient or stable transfection conditions. […] Samples were prepared in quadruplicate using the iQ SYBR green supermix and data were analyzed using the iCycler iQ software. […] The reported sample error was calculated using the following expression: […]

## O=c1[nH]cnc2nc[nH]c12 [Hypoxanthine]
[1]
  affinity for the xanthine aptamer relative to xanthine: comparable affinity

B1: th1: SEQ ID NO. 23; GFP-targeting miRNA with a theophylline aptamer in the basal segments (nucleic acid)
chain: TCTAGAACGGGTCCTGATACCAGCGTGAGCGAGCACAAGCTGGAGTACAACTATAGTGAAGCCACAGATGTATAGTTGTACTCCAGCTTGTGCCCGCCTACGCCCTTGGCAGCAGGGCCC
modifications: expressed or natural sequence
notes: 23; GFP-targeting miRNA with a theophylline aptamer in the basal segments
[2]; single copy, absence of ligand
  GFP silencing: silence GFP with comparable strength
[2]; transient transfection with varying theophylline concentrations
  response of GFP levels to theophylline: theophylline dose-dependent increase in GFP expression levels
[2]; two copies, shortest spacer (2 nt), 5 mM theophylline
  GFP silencing and theophylline response of two miRNA copies, adjacent placement: compromised both silencing and the response to theophylline
[2]; two copies, spacer up to 112 nt, 5 mM theophylline, versus single copy
  GFP silencing and theophylline response of two miRNA copies, increased spacer length: restored and even exceeded the silencing activity and theophylline-dependence from a single copy
[2]; up to four copies separated by 112 nt spacer
  GFP silencing versus miRNA copy number: GFP silencing increased with each additional copy
[2]; up to four copies, 112 nt spacer, 5 mM theophylline
  dynamic range (ratio of GFP levels in the presence or absence of theophylline) versus copy number: increased silencing and the dynamic range
[3]; in vitro transcribed miRNA, PAGE
  size of primary products of Drosha processing: ~61 nts
[3]; presence or absence of 5 mM theophylline
  effect of theophylline on Drosha processing: theophylline inhibited proper processing
[4]; 5 mM theophylline
  ligand regulation of DsRed-Express in cis: two copies were sufficient to introduce ligand regulation
[4]; one to four copies, transient transfection
  DsRed silencing in cis versus copy number: DsRed silencing increased with increasing copy number
[5]
  GFP silencing and dynamic range of self-targeting versus non-targeting miRNAs: improved both GFP silencing and the dynamic range

B2: La2: SEQ ID NO. 34; La-targeting miRNA with the theophylline aptamer in the basal segments (nucleic acid)
chain: TCTAGAACGGGTCCTGATACCAGCGTGAGCGCTGGAAATCAGTGAAGATAAAATAGTGAAGCCACAGATGTATTTTATCTTCACTGATTTCCATCGCCTACGCCCTTGGCAGCAGGGCCC
modifications: expressed or natural sequence
notes: 34; La-targeting miRNA with the theophylline aptamer in the basal segments
[6]
  response of DsRed levels to theophylline: increase in DsRed levels in the presence of theophylline
  DsRed-Express down-regulation in cis: substantial DsRed-Express down-regulation
[7]; 1.5 mM theophylline for over one week
  response of La transcript levels to theophylline: theophylline-dependent increase in La transcript levels
[7]
  silencing of La transcript: relatively strong silencing

B3: La1: SEQ ID NO. 33; La-targeting miRNA with basal segments similar to miR-30a, no aptamer (nucleic acid)
chain: TCTAGAGTTTGACAGTGAGCGCTGGAAATCAGTGAAGATAAAATAGTGAAGCCACAGATGTATTTTATCTTCACTGATTTCCATTGCCTACTGCCTCGGACTGAATTCATAGGGCCC
modifications: expressed or natural sequence
notes: 33; La-targeting miRNA with basal segments similar to miR-30a, no aptamer
[6]
  response of DsRed levels to theophylline: not observed
  DsRed-Express down-regulation in cis: substantial DsRed-Express down-regulation
[7]
  silencing of La transcript: relatively strong silencing
